{"source": "paper PMC3087119", "about": "(Human Mutation, 2011)", "proteins": {"B1": {"name": "βA3-crystallin (natural protein)", "chain": "METQAEQQELETLPTTKMAQTNPTPGSLGPWKITIYDQENFQGKRMEFTSSCPNVSERSFDNVRSLKVESGAWIGYEHTSFCGQQFILERGEYPRWDAWSGSNAYHIERLMSFRPICSANHKESKMTIFEKENFIGRQWEISDDYPSLQAMGWFNNEVGSMKIQSGAWVCYQYPGYRGYQYILECDHHGGDYKHWREWGSHAQTSQIQSIRRIQQ"}}, "molecular_target": "the molecule itself", "assay": "static light scattering", "data": [{"protein": "B1", "values": [{"measurement": "stoichiometry N", "value": 2}]}]}
